From patent US20210292393A1 (published 2021) come the findings set out here.

Experiment [1] deals with SARS-CoV-2 spike (S) protein, full length, wild type, expressed on the surface of CHO cells (SARS-CoV-2, UniProt P0DTC2 14-1273).
The target of experiment [2] is SARS-CoV-2 full length spike protein, wild type, expressed on the surface of CHO cells (SARS-CoV-2, UniProt P0DTC2 14-1273).

Substitutions are numbered along the chain they refer to.

B1: antibody 367 (antibody, V domains shown)
VH: QVQLVQSGAEVKKPGASVKVSCKASGYTFTGYYIHWVRQAPGQGLEWMGWINPNSGGTIYAQKFQGRVTMTRDTSISTAYMELSRLTSDDTAVYSCAREPYYDILTGYYAPRRYFDYWGQGTLVTVSS
VL: QSALTQPASVSGSPGQSITISCTGTSSDVGSYNYVSWYLQHPGKAPKLMIYDVSNRPSGVSNRFSGSKSGNTASLTISGLQAEDEADFYCSSYTSRSTYVFGTGTKVTVL
B1: in experiment [1], the “median fluorescence fold over isotype” value worked out at 26.5 fold over isotype.

B2: antibody 372 (antibody, V domains shown)
VH: QVQLVESGGGVVQPGRSLRLSCAASGFTFSSYAMHWVRQAPGKGLEWVAVISYDGSNKYYADSVKGRFTISRDNSKNTLYLQMNSLRAEDTAVYYCARDLGTSALLWFGELFLNYGMDVWGQGTTVTVSS
VL: QSALTQPRSVSGSPGQSVTISCTGTSSDVGGYNYVSWYQQHPGKAPKLMIYDVSKRPSGVPDRFSGSKSGNTASLTISGLQAEDEADYYCCSYAGSPILVFGGGTKLTVL
For the molecule B2, in experiment [1], the “median fluorescence fold over isotype” value was 30.2 fold over isotype.

B3: antibody 380 (antibody, V domains shown)
VH: QVQLVESGGGVVQPGRSLRLSCAASGFTLKNYGMHWVRQAPGKGLEWVIVLSFDGSDEYKADSVRGRFTVSRDNSKNTLFLQMNSLRPDDTAVYYCAREQPTMIEGGRGPFDIWGQGTMVTVSS
VL: EVVMTQSPATLSVSPGDRATLSCRASQGVNSNLAWYQQKPGQAPRLLIYAASTRATGIPARFSASGSGTHFTLTISSLQSEDFAVYYCLQYNNWPPWTFGQGTKLEIK
Consider B3, for which, in experiment [1], the “median fluorescence fold over isotype” value is 1.06 fold over isotype.

B4: antibody 497 (antibody, V domains shown)
VH: QVQLQESGPGLVKPSQTLSLTCTVSGGSINSFGYYWSWIRQHPGKGLEWIGYIYYSGSTDYNPSLNSRVTISLDTSKNQFLLKLTSVTAADTAVYYCAKLTDYYDSSGYSFDYWGQGTLVTVSS
VL: DIQMTQSPSSVSASVGDRVTITCRASQDISRWLAWYQQKPGKAPKLLIYAASSLQSGVPSRFSGRGSGTELTLTISSLQPEDFATYFCQQAYSFPFTFGGGTKVEIK
With B4, the “median fluorescence fold over isotype control” value in experiment [2] was found to be 28.3 fold over isotype.

B5: antibody 504 (antibody, V domains shown)
VH: QVQLVESGGGVVQPGRSLRLSCAASGFTFSSYGMHWVRQAPGKGLEWVAVISYDGSNKYYADSVKGRFTISRDNSKNTLYLQMNSLRAEDTAVYYCAKGGGGGYCSGGSCYSHYFDYWGQGTLVTVSS
VL: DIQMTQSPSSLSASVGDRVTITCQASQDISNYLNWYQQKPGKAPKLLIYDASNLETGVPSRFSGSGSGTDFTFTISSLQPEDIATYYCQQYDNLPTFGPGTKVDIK
B5: the “median fluorescence fold over isotype control” value in experiment [2] is 2.78 fold over isotype.

B6: antibody 378 (antibody, V domains shown)
VH: QVQLVQSGAEVKKPGASVKVSCKASGYTFTSYYMHWVRQAPGQGLEWMGIINPSGGSTSYAQKFQGRVTMTRDTSTSTVYMELSSLRSEDTAVYYCARDSGGMDDFWSGYYSPGGDYWGQGTLVTVSS
VL: QSALTQPASVSGSPGQSITISCTGTSSDVGSYNLVSWYQQHPGKAPKLMIYEGSKRPSGVSNRFSGSKSGNTASLTISGLQAEDEADYYCCSYAGSSTWVFGGGTKLTVL
Take B6: the “median fluorescence fold over isotype” value in experiment [1] worked out at 25.3 fold over isotype.

B7: antibody 496 (antibody, V domains shown)
VH: QVQLVQSGAEVKKPGASVKVSCKASGYTFTDYYIHWVRQAPGQGLEWMGWINPNSGGTNYAQKFQGRLTMTRDTSISTAYMELSRLRSDDTAVYYCARVYSMFREFIINPYYYYYGLDVWGQGTTVTVSS
VL: B6 VL with G15R, T76A, D87N, W99L
Take B7: the “median fluorescence fold over isotype control” value in experiment [2] is 19.7 fold over isotype.

B8: antibody 492 (antibody, V domains shown)
VH: QVQLVESGGGVVQPGRSLRLSCAASGFTFSSYGMHWVRQAPGKGLEWVAVISYDGSNKYYADSVKGRFTISRDNSKNTLYLQMNSLRAEDTAVYYCAKDGILWWWWGYFDYWGQGTLVTVSS
VL: QSVLTQPPSVSGAPGQRVTISCTGSSSNIGAGFDVHWYQQLPGTAPKLLIYGNSNRPSGVPDRFSGSKSGTSASLAITGLQAEDEADYYCQSYDSSLSVVFGGGTKLTVL
For B8, in experiment [2], the “median fluorescence fold over isotype control” value amounted to 9.25 fold over isotype.
